Assay results: patent US20090087428A1

Molecular target: GST-huFcγRIIA(R131) (human) [GST: P08515]
Assay: ELISA, plate-coated GST fusion (FIG. 8)

EC50: 2.5 µg/mL
B1: Antibody 5A6.2.1 (anti-human FcγRIIB monoclonal antibody) (antibody)
VH: EVKLEESGGGLVQPGGSMKLSCVASGFTFSDAWMDWVRQSPERGLEWVAEIRSKPNNHATYYAESVKGRFTISRDDSKSSVYLQMTSLRPEDTGIYYCTHFDYWGQGTTLTVSSAKTTGPSVFPLAPSSKSTSGGTAALGCLVKDYFPEPVTVSWNSGALTSGVHTFPAVLQSSGLYSLSSVVTVPSSSLGTQTYICNVNHKPSNTKVDKKVEPKSCDKTHT
VL: DIQMTQSPSSLSASLGERVSLTCRASQEISGYLSWFQQKPDGTIKRLIYAASALDSGVPKRFSGSWSGSDYSLTISSLESEDFADYYCLQYVSYPLTFGAGTKLELKRTVAAPSVFIFPPSDEQLKSGTASVVCLLNNFYPREAKVQWKVDNALQSGNSQESVTEQDSKDSTYSLSSTLTLSKADYEKHKVYACEVTHQGLSSPVTKSFNRGEC
